Source: patent US20240049668A1 (VILMORIN AND CIE, published 2024)

T1: Movement Protein of ToBRFV (Tomato Brown Rugose Fruit Virus …, UniProt A0A0S2SZW1 1-266)
T1 sequence: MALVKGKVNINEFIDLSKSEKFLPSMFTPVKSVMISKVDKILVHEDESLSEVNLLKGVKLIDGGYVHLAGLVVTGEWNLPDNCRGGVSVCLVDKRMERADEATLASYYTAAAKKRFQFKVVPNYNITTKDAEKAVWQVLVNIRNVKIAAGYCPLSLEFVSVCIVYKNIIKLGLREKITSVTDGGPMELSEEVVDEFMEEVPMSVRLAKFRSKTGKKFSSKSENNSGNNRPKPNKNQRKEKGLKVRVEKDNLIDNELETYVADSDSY

B1: TM-2-2 variant pJL 468_A (848 A) (receptor)
chain: MAEILLTSVINKSVEIAGNLLIQEGKRLYWLKEDIDWLQREMRHIRSYVDNAKAKEAGGDSRVKNLLKDIQELAGDVEDLLDDFLPKIQQSNKFNYCLKRSSFADEFAMEIEKIKRRVVDIDRIRKTYNIIDTDNNNDDCVLLDRRRLFLHADETEIIGLDDDFNMLQAKLLNQDLHYGVVSIVGMPGLGKTTLAKKLYRLIRDQFECSGLVYVSQQPRASEILLDIAKQIGLTEQKMKENLEDNLRSLLKIKRYVILLDDIWDVEIWDDLKLVLPECDSKVGSRMIITSRNSNVGRYIGGESSLHALQPLESEKSFELFTKKIFNFDDNNSWANASPDLVNIGRNIVGRCGGIPLAIVVTAGMLRARERTEHAWNRVLESMGHKVQDGCAKVLALSYNDLPIASRPCFLYFGLYPEDHEIRAFDLINMWIAEKFIVVNSGNRREAEDLAEDVLNDLVSRNLIQLAKRTYNGRISSCRIHDLLHSLCVDLAKESNFFHTAHDAFGDPGNVARLRRITFYSDNVMIEFFRSNPKLEKLRVLFCFAKDPSIFSHMAYFDFKLLHTLVVVMSQSFQAYVTIPSKFGNMTCLRYLRLEGNICGKLPNSIVKLTRLETIDIDRRSLIQPPSGVWESKHLRHLCYRDYGQACNSCFSISSFYPNIYSLHPNNLQTLMWIPDKFFEPRLLHRLINLRKLGILGVSNSTVKMLSIFSPVLKALEVLKLSFSSDPSEQIKLSSYPHIAKLHLNVNRTMALNSQSFPPNLIKLTLAYFSVDRYILAVLKTFPKLRKLKMFICKYNEEKMDLSGEANGYSFPQLEVLHIHSPNGLSEVTCTDDVSMPKLKKLLLTGFHARISLSERLKKLSK
B2: TM-2-2 variant pJL 468_D (848 D) (receptor)
chain: MAEILLTSVINKSVEIAGNLLIQEGKRLYWLKEDIDWLQREMRHIRSYVDNAKAKEAGGDSRVKNLLKDIQELAGDVEDLLDDFLPKIQQSNKFNYCLKRSSFADEFAMEIEKIKRRVVDIDRIRKTYNIIDTDNNNDDCVLLDRRRLFLHADETEIIGLDDDFNMLQAKLLNQDLHYGVVSIVGMPGLGKTTLAKKLYRLIRDQFECSGLVYVSQQPRASEILLDIAKQIGLTEQKMKENLEDNLRSLLKIKRYVILLDDIWDVEIWDDLKLVLPECDSKVGSRMIITSRNSNVGRYIGGESSLHALQPLESEKSFELFTKKIFNFDDNNSWANASPDLVNIGRNIVGRCGGIPLAIVVTAGMLRARERTEHAWNRVLESMGHKVQDGCAKVLALSYNDLPIASRPCFLYFGLYPEDHEIRAFDLINMWIAEKFIVVNSGNRREAEDLAEDVLNDLVSRNLIQLAKRTYNGRISSCRIHDLLHSLCVDLAKESNFFHTAHDAFGDPGNVARLRRITFYSDNVMIEFFRSNPKLEKLRVLFCFAKDPSIFSHMAYFDFKLLHTLVVVMSQSFQAYVTIPSKFGNMTCLRYLRLEGNICGKLPNSIVKLTRLETIDIDRRSLIQPPSGVWESKHLRHLCYRDYGQACNSCFSISSFYPNIYSLHPNNLQTLMWIPDKFFEPRLLHRLINLRKLGILGVSNSTVKMLSIFSPVLKALEVLKLSFSSDPSEQIKLSSYPHIAKLHLNVNRTMALNSQSFPPNLIKLTLAYFSVDRYILAVLKTFPKLRKLKMFICKYNEEKMDLSGEANGYSFPQLEVLHIHSPNGLSEVTCTDDVSMPKLKKLLLTGFHDRISLSERLKKLSK
B3: TM-2-2 variant pJL 468_E (848 E) (receptor)
chain: MAEILLTSVINKSVEIAGNLLIQEGKRLYWLKEDIDWLQREMRHIRSYVDNAKAKEAGGDSRVKNLLKDIQELAGDVEDLLDDFLPKIQQSNKFNYCLKRSSFADEFAMEIEKIKRRVVDIDRIRKTYNIIDTDNNNDDCVLLDRRRLFLHADETEIIGLDDDFNMLQAKLLNQDLHYGVVSIVGMPGLGKTTLAKKLYRLIRDQFECSGLVYVSQQPRASEILLDIAKQIGLTEQKMKENLEDNLRSLLKIKRYVILLDDIWDVEIWDDLKLVLPECDSKVGSRMIITSRNSNVGRYIGGESSLHALQPLESEKSFELFTKKIFNFDDNNSWANASPDLVNIGRNIVGRCGGIPLAIVVTAGMLRARERTEHAWNRVLESMGHKVQDGCAKVLALSYNDLPIASRPCFLYFGLYPEDHEIRAFDLINMWIAEKFIVVNSGNRREAEDLAEDVLNDLVSRNLIQLAKRTYNGRISSCRIHDLLHSLCVDLAKESNFFHTAHDAFGDPGNVARLRRITFYSDNVMIEFFRSNPKLEKLRVLFCFAKDPSIFSHMAYFDFKLLHTLVVVMSQSFQAYVTIPSKFGNMTCLRYLRLEGNICGKLPNSIVKLTRLETIDIDRRSLIQPPSGVWESKHLRHLCYRDYGQACNSCFSISSFYPNIYSLHPNNLQTLMWIPDKFFEPRLLHRLINLRKLGILGVSNSTVKMLSIFSPVLKALEVLKLSFSSDPSEQIKLSSYPHIAKLHLNVNRTMALNSQSFPPNLIKLTLAYFSVDRYILAVLKTFPKLRKLKMFICKYNEEKMDLSGEANGYSFPQLEVLHIHSPNGLSEVTCTDDVSMPKLKKLLLTGFHERISLSERLKKLSK
B4: TM-2-2 variant pJL 468_H (848 H) (receptor)
chain: MAEILLTSVINKSVEIAGNLLIQEGKRLYWLKEDIDWLQREMRHIRSYVDNAKAKEAGGDSRVKNLLKDIQELAGDVEDLLDDFLPKIQQSNKFNYCLKRSSFADEFAMEIEKIKRRVVDIDRIRKTYNIIDTDNNNDDCVLLDRRRLFLHADETEIIGLDDDFNMLQAKLLNQDLHYGVVSIVGMPGLGKTTLAKKLYRLIRDQFECSGLVYVSQQPRASEILLDIAKQIGLTEQKMKENLEDNLRSLLKIKRYVILLDDIWDVEIWDDLKLVLPECDSKVGSRMIITSRNSNVGRYIGGESSLHALQPLESEKSFELFTKKIFNFDDNNSWANASPDLVNIGRNIVGRCGGIPLAIVVTAGMLRARERTEHAWNRVLESMGHKVQDGCAKVLALSYNDLPIASRPCFLYFGLYPEDHEIRAFDLINMWIAEKFIVVNSGNRREAEDLAEDVLNDLVSRNLIQLAKRTYNGRISSCRIHDLLHSLCVDLAKESNFFHTAHDAFGDPGNVARLRRITFYSDNVMIEFFRSNPKLEKLRVLFCFAKDPSIFSHMAYFDFKLLHTLVVVMSQSFQAYVTIPSKFGNMTCLRYLRLEGNICGKLPNSIVKLTRLETIDIDRRSLIQPPSGVWESKHLRHLCYRDYGQACNSCFSISSFYPNIYSLHPNNLQTLMWIPDKFFEPRLLHRLINLRKLGILGVSNSTVKMLSIFSPVLKALEVLKLSFSSDPSEQIKLSSYPHIAKLHLNVNRTMALNSQSFPPNLIKLTLAYFSVDRYILAVLKTFPKLRKLKMFICKYNEEKMDLSGEANGYSFPQLEVLHIHSPNGLSEVTCTDDVSMPKLKKLLLTGFHHRISLSERLKKLSK
B5: TM-2-2 variant pJL 468_K (848 K) (receptor)
chain: MAEILLTSVINKSVEIAGNLLIQEGKRLYWLKEDIDWLQREMRHIRSYVDNAKAKEAGGDSRVKNLLKDIQELAGDVEDLLDDFLPKIQQSNKFNYCLKRSSFADEFAMEIEKIKRRVVDIDRIRKTYNIIDTDNNNDDCVLLDRRRLFLHADETEIIGLDDDFNMLQAKLLNQDLHYGVVSIVGMPGLGKTTLAKKLYRLIRDQFECSGLVYVSQQPRASEILLDIAKQIGLTEQKMKENLEDNLRSLLKIKRYVILLDDIWDVEIWDDLKLVLPECDSKVGSRMIITSRNSNVGRYIGGESSLHALQPLESEKSFELFTKKIFNFDDNNSWANASPDLVNIGRNIVGRCGGIPLAIVVTAGMLRARERTEHAWNRVLESMGHKVQDGCAKVLALSYNDLPIASRPCFLYFGLYPEDHEIRAFDLINMWIAEKFIVVNSGNRREAEDLAEDVLNDLVSRNLIQLAKRTYNGRISSCRIHDLLHSLCVDLAKESNFFHTAHDAFGDPGNVARLRRITFYSDNVMIEFFRSNPKLEKLRVLFCFAKDPSIFSHMAYFDFKLLHTLVVVMSQSFQAYVTIPSKFGNMTCLRYLRLEGNICGKLPNSIVKLTRLETIDIDRRSLIQPPSGVWESKHLRHLCYRDYGQACNSCFSISSFYPNIYSLHPNNLQTLMWIPDKFFEPRLLHRLINLRKLGILGVSNSTVKMLSIFSPVLKALEVLKLSFSSDPSEQIKLSSYPHIAKLHLNVNRTMALNSQSFPPNLIKLTLAYFSVDRYILAVLKTFPKLRKLKMFICKYNEEKMDLSGEANGYSFPQLEVLHIHSPNGLSEVTCTDDVSMPKLKKLLLTGFHKRISLSERLKKLSK
B6: TM-2-2 variant pJL 468_L (848 L) (receptor)
chain: MAEILLTSVINKSVEIAGNLLIQEGKRLYWLKEDIDWLQREMRHIRSYVDNAKAKEAGGDSRVKNLLKDIQELAGDVEDLLDDFLPKIQQSNKFNYCLKRSSFADEFAMEIEKIKRRVVDIDRIRKTYNIIDTDNNNDDCVLLDRRRLFLHADETEIIGLDDDFNMLQAKLLNQDLHYGVVSIVGMPGLGKTTLAKKLYRLIRDQFECSGLVYVSQQPRASEILLDIAKQIGLTEQKMKENLEDNLRSLLKIKRYVILLDDIWDVEIWDDLKLVLPECDSKVGSRMIITSRNSNVGRYIGGESSLHALQPLESEKSFELFTKKIFNFDDNNSWANASPDLVNIGRNIVGRCGGIPLAIVVTAGMLRARERTEHAWNRVLESMGHKVQDGCAKVLALSYNDLPIASRPCFLYFGLYPEDHEIRAFDLINMWIAEKFIVVNSGNRREAEDLAEDVLNDLVSRNLIQLAKRTYNGRISSCRIHDLLHSLCVDLAKESNFFHTAHDAFGDPGNVARLRRITFYSDNVMIEFFRSNPKLEKLRVLFCFAKDPSIFSHMAYFDFKLLHTLVVVMSQSFQAYVTIPSKFGNMTCLRYLRLEGNICGKLPNSIVKLTRLETIDIDRRSLIQPPSGVWESKHLRHLCYRDYGQACNSCFSISSFYPNIYSLHPNNLQTLMWIPDKFFEPRLLHRLINLRKLGILGVSNSTVKMLSIFSPVLKALEVLKLSFSSDPSEQIKLSSYPHIAKLHLNVNRTMALNSQSFPPNLIKLTLAYFSVDRYILAVLKTFPKLRKLKMFICKYNEEKMDLSGEANGYSFPQLEVLHIHSPNGLSEVTCTDDVSMPKLKKLLLTGFHLRISLSERLKKLSK

The binders below were run against T1, Movement Protein of ToBRFV (assay: cell-based or functional assay).
In the case of B1, the “HR when expressed with MP Rugose” value is reported as less than 1 HR scale 0-4. For B2, the “HR when expressed with MP Rugose” value was less than 1 HR scale 0-4. For B3, the “HR when expressed with MP Rugose” value was less than 1 HR scale 0-4. B4 was tested, and the “HR when expressed with MP Rugose” value was less than 1 HR scale 0-4. For B5, the “HR when expressed with MP Rugose” value was roughly 1 HR scale 0-4. In the case of B6, the “HR when expressed with MP Rugose” value is reported as less than 1 HR scale 0-4.
